Assay results reported in patent US20110027281A1 (Ablynx, published 2011).

Legend:
mouse TNF-alpha = molecular target: T1, mouse TNF-alpha (mouse, UniProt P06804 80-235); assay: cell-based or functional assay
T1 sequence (looked up): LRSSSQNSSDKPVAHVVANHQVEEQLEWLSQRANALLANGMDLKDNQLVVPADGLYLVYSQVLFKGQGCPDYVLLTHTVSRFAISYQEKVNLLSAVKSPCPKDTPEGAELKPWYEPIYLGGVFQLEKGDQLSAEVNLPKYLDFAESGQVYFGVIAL

[1] = molecular target: T2, human Tumor Necrosis Factor alpha (human, UniProt P01375 77-233); assay: cell-based or functional assay
T2 sequence (P01375 77-233 limits assumed): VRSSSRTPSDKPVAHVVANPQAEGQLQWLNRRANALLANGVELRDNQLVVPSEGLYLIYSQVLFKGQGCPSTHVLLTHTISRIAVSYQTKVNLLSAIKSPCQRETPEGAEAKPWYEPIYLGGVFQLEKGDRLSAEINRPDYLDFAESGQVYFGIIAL

[2] = molecular target: T2, human Tumor Necrosis Factor alpha; assay: in vitro receptor binding assay: biotinylated human TNF-alpha pre-incubated with VHH, binding to coated Enbrel

B1: VHH#m4B (VHH)
VHH: QVQLQDSGGGLVQAGGSLRLSCGVSGLSFSGYTMGWFRQAPGKEREFAAAIGWNSGTTEYRNSVKGRFTISRDNAKNTVYLQMNSLKPEDTAVYYCAASPKYMTAYERSYDFWGQGTQVTVSS
B1 was tested, and the “relative potency, MTT cytotoxicity assay with the murine cell line L929” value (mouse TNF-alpha) was 10 fold.

B2: TRI 3E (VHH)
chain: QVQLQESGGGLVQPGGSLRLSCAASGRTFSDHSGYTYTIGWFRQAPGKEREFVARIYWSSGNTYYADSVKGRFAISRDIAKNTVDLTMNNLEPEDTAVYYCAARDGIPTSRSVESYNYWGQGTQVTVSSEPKTPKPQPAAAQVQLQESGGGLVQPGGSLRLSCAASGRTFSDHSGYTYTIGWFRQAPGKEREFVARIYWSSGNTYYADSVKGRFAISRDIAKNTVDLTMNNLEPEDTAVYYCAARDGIPTSRSVESYNYWGQGTQVTVSSEPKTPKPQPAAAQVQLQESGGGLVQPGGSLRLSCAASGRTFSDHSGYTYTIGWFRQAPGKEREFVARIYWSSGNTYYADSVKGRFAISRDIAKNTVDLTMNNLEPEDTAVYYCAARDGIPTSRSVESYNYWGQGTQVTVSS
For B2, the “IC50, cell based assay using KYM cells (TNF-alpha 1.29 ng/ml)” value (from here on “IC50, cell based assay using KYM cells”) [1] was 20000 nM.

B3: VHH#m9E (VHH)
VHH: EVQLVESGGGLVQAGGSLRLSCAASGGTLSSYITGWFRQAPGKEREFVGAVSWSSSTIVYADSVEGRFTISRDNHQNTVYLQMDSLKPEDTAVYYCAARPYQKYNWASASYNVWGQGTQVTVSS
For B3, the “IC50, MTT cytotoxicity assay with L929 cells (mouse TNF-alpha 65 pg/ml)” value (“IC50, MTT cytotoxicity assay” for short) (mouse TNF-alpha) was 25 nM.

B4: BIV 3E (VHH)
chain: QVQLQDSGGGLVQAGGSLRLSCAASGGTFSSIIMAWFRQAPGKEREFVGAVSWSGGTTVYADSVLGRFEISRDSARKSVYLQMNSLKPEDTAVYYCAARPYQKYNWASASYNVWGQGTQVTVSSEPKTPKPQPAAAQVQLQDSGGGLVQAGGSLRLSCAASGGTFSSIIMAWFRQAPGKEREFVGAVSWSGGTTVYADSVLGRFEISRDSARKSVYLQMNSLKPEDTAVYYCAARPYQKYNWASASYNVWGQGTQVTVSS
In the case of B4, the “IC50, cell based assay using KYM cells” value [1] is reported as 0.03 nM and the “fold lower IC50 than the monomer VHH#3E, cell based assay using KYM cells” value [1] is reported as 400 fold.

B5: BIV#m3F (VHH)
chain: QVQLQDSGGGLVQAGGSLRLSCAASGGTFSSIIMAWFRQAPGKEREFVGAVSWSGGTTVYADSVLGRFEISRDSARKSVYLQMNSLKPEDTAVYYCAARPYQKYNWASASYNVWGQGTQVTVSSEPKTPKPQPAAAQVQLQDSGGGLVQAGGSLRLSCAASGGTFSSIIMAWFRQAPGKEREFVGAVSWSGGTTVYADSVLGRFEISRDSARKSVYLQMNSLKPEDTAVYYCAARPYQKYNWASASYNVWGQGTQVTVSS
B5 was tested, and the “IC50, MTT cytotoxicity assay” value (mouse TNF-alpha) was 2000 nM and the “fold change of IC50 against monovalent 3F, MTT cytotoxicity assay with L929 cells” value (mouse TNF-alpha) was 1000 fold.

B6: TETRA 3E (VHH)
chain: QVQLQESGGGLVQPGGSLRLSCAASGRTFSDHSGYTYTIGWFRQAPGKEREFVARIYWSSGNTYYADSVKGRFAISRDIAKNTVDLTMNNLEPEDTAVYYCAARDGIPTSRSVESYNYWGQGTQVTVSSEPKTPKPQPAAAQVQLQESGGGLVQPGGSLRLSCAASGRTFSDHSGYTYTIGWFRQAPGKEREFVARIYWSSGNTYYADSVKGRFAISRDIAKNTVDLTMNNLEPEDTAVYYCAARDGIPTSRSVESYNYWGQGTQVTVSSEPKTPKPQPAAAQVQLQESGGGLVQPGGSLRLSCAASGRTFSDHSGYTYTIGWFRQAPGKEREFVARIYWSSGNTYYADSVKGRFAISRDIAKNTVDLTMNNLEPEDTAVYYCAARDGIPTSRSVESYNYWGQGTQVTVSSEPKTPKPQPAAAQVQLQESGGGLVQPGGSLRLSCAASGRTFSDHSGYTYTIGWFRQAPGKEREFVARIYWSSGNTYYADSVKGRFAISRDIAKNTVDLTMNNLEPEDTAVYYCAARDGIPTSRSVESYNYWGQGTQVTVSS
In the case of B6, the “IC50, cell based assay using KYM cells” value [1] is reported as 6000 nM.

B7: VHH#12B (VHH)
VHH: QVQLQESGGGLVQPGGSLRLSCAASGFEFENHWMYWVRQAPGKGLEWVSTVNTNGLITRYADSVKGRFTISRDNAKYTLYLQMNSLKSEDTAVYYCTKVLPPYSDDSRTNADWGQGTQVTVSS
B7 was tested, and the IC50 [2] was 66 nM.

B8: VHH#12B Q1E + Q5L + A74S + Y76N + K83R + P84A (VHH)
VHH: EVQLLESGGGLVQPGGSLRLSCAASGFEFENHWMYWVRQAPGKGLEWVSTVNTNGLITRYADSVKGRFTISRDNSKNTLYLQMNSLRAEDTAVYYCTKVLPPYSDDSRTNADWGQGTQVTVSS
notes: Made by site-directed mutagenesis and purified on TALON; The tags are not described for the mutant; also called mutant Q1E+Q5L+A74S+Y76N+K83R+P84A; mutant 1E+Q5LA74S+Y76N+K83R+P84A
B8 was tested, and the IC50 [2] was 200 nM and the “fold increase of IC50 against wild type VHH#12B” value [2] was 3 fold.

B9: VHH#m3F (VHH)
VHH: QVQLQDSGGGLVQAGGSLRLSCAASGGTFSSIIMAWFRQAPGKEREFVGAVSWSGGTTVYADSVLGRFEISRDSARKSVYLQMNSLKPEDTAVYYCAARPYQKYNWASASYNVWGQGTQVTVSS
With B9 the “IC50, MTT cytotoxicity assay” value (mouse TNF-alpha) was 2 nM and the “relative potency, MTT cytotoxicity assay with the murine cell line L929” value (mouse TNF-alpha) was 10 fold.
